This assay concerns the target apo-hTf-Sepharose 4B (human apo-transferrin coupled to Sepharose 4B) (human, UniProt P02787 20-698, coupled to Sepharose 4B). The assay can be described thus: affinity chromatography of solubilized membranes on apo-hTf-Sepharose 4B.

apo-hTf-Sepharose 4B (human apo-transferrin coupled to Sepharose 4B), sequence (P02787 20-698 limits assumed): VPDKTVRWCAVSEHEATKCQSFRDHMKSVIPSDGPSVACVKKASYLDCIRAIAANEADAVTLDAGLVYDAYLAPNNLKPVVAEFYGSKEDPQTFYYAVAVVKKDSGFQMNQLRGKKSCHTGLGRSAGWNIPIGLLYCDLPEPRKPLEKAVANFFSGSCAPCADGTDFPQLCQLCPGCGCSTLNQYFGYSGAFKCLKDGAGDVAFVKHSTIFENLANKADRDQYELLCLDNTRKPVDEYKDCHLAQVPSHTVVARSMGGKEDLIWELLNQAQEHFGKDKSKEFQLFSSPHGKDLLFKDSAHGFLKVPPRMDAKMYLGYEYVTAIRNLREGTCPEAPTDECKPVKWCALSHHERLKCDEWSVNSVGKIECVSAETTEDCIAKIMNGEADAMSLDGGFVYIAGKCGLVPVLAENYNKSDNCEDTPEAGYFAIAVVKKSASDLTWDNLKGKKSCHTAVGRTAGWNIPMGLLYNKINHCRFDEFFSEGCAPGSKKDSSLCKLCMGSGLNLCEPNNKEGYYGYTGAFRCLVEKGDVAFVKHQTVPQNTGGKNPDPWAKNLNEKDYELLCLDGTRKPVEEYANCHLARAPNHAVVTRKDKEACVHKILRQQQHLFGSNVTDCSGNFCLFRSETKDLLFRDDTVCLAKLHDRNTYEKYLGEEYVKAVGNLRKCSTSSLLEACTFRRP

B1: Native Tbp2 (4223) (receptor)
chain: CGGSGGSNPPAPTPIPNASGSGNTGNTGNAGGTDNTANAGNTGGTNSGTGSANTPEPKYQDVPTEKNEKDKVSSIQEPAMGYGMALSKINLHNRQDTPLDEKNIITLDGKKQVAEGKKSPLPFSLDVENKLLDGYIAKMNVADKNAIGDRIKKGNKEISDEELAKQIKEAVRKSHEFQQVLSSLENKIFHSNDGTTKATTRDLKYVDYGYYLANDGNYLTVKTDKLWNLGPVGGVFYNGTTTAKELPTQDAVKYKGHWDFMTDVANRRNRFSEVKENSQAGWYYGASSKDEYNRLLTKEDSAPDGHSGEYGHSSEFTVNFKEKKLTGKLFSNLQDRHKGNVTKTERYDIDANIHGNRFRGSATASNKNDTSKHPFTSDANNRLEGGFYGPKGEELAGKFLTNDNKLFGVFGAKRESKAEEKTEAILDAYALGTFNTSNATTFTPFTEKQLDNFGNAKKLVLGSTVIDLVPTDATKNEFTKDKPESATNEAGETLMVNDEVSVKTYGKNFEYLKFGELSIGGSHSVFLQGERTATTGEKAVPTTGTAKYLGNWVGYITGKDTGTGTGKSFTDAQDVADFDIDFGNKSVSGKLITKGRQDPVFSITGQIAGNGWTGTASTTKADAGGYKIDSSSTGKSIVIKDANVTGGFYGPNANEMGGSFTHNADDSKASVVFGTKRQQEVK
For the molecule B1, the binding result is reported as “binds”.

Values taken from patent US6440701 (AVENTIS PASTEUR, dated 2002).
